Reference: the supplement of paper PMC10567573
± gives the standard deviation.

Experiment: protein stability index of a GFP-peptide fusion (GPS, HEK-293T) (PSI 1-6); higher = more stable
Settings: c terminus: a fixed tail appended
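Further: 24-mer peptide tiles fused after GFP, lentivirally expressed, FACS-sorted into six equal bins by GFP/DsRed ratio, decoded by Illumina sequencing, PSI is the read-weighted mean bin number.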

Sequence	protein stability index (treatment: DMSO)	protein stability index (treatment: MLN4924 1 uM, 8 h)
SSHFLEQTLDKKLMSDLRRKRTAH [INTS4]	4.06 ± 0.23	4.14 ± 0.17
GPGIVGNVLVDPSARIGQNCSIGP [GMPPB]	3.74 ± 0.32	3.81 ± 0.21
QARQFRTFHHPTYGSCYTVDGVWT [SCNN1D]	2.21 ± 0.19	2.3 ± 0.2
KGKAGRVDLVDESGYVSGYKHAGT [TPPP]	4.32 ± 0.12	4.57 ± 0.18
TVEPRLLVADLLYWKDTRTSGVVF [RTN2]	2.97 ± 0.61	2.98 ± 0.6
PPETSLPYKWVVEAANLLIPAVGS [MYBL2]	2.41 ± 0.42	2.27 ± 0.29
ELKTFRLKTRSWAGERSRRELCSR [CDC25B]	3.07 ± 0.099	3.44 ± 0.56
TPVIAATPVPTITANVTSVPVPPA [BRD3]	4.53 ± 0.23	4.52 ± 0.047
ASAAARLGCNRQSWCLKRYDLEYW [TRIM14]	2.29 ± 0.7	1.86 ± 0.27
DVMLVECYDPKGDQWNILQTPILE [KLHL14]	2.55 ± 0.36	2.64 ± 0.38
VPQDPDLEEEEEEEDLVLTCEDDE [ZBTB22]	5.59 ± 0.22	5.64 ± 0.25
MEVPQPEPAPGSALSPAGVCGGAQ [CDC25B]	5.25 ± 0.34	5.23 ± 0.33
CTLGICGQGLKSYMTKPSKSLLPH [RTP4]	2.2 ± 0.3	2.21 ± 0.35
FIPSSHNDRDFLTRIFTEDRFAQD [PPEF2]	2.58 ± 0.81	3.05 ± 0.64
DPLSPMTASSLLSFAELFSFMLQD [FEM1C]	2.71 ± 0.49	2.42 ± 0.51
QAQGARAGGSARRPDTGDDAAGHG [GMCL1]	5.41 ± 0.4	5.57 ± 0.35
ITCLTCQGTGYIPTEQVNELVALI [TMEM106C]	2.17 ± 0.3	2.2 ± 0.27
NVVVHDWLYYYAYKDFLWFFSKRF [SOAT1]	2.18 ± 0.35	2.17 ± 0.44
SFGFPRTVKHIDAALSEENTGKTY [MMP1]	4.13 ± 0.25	3.94 ± 0.16
ALDKQHSRDSAAITHSTYSLPASS [NOL4L]	4.57 ± 0.065	4.5 ± 0.065
VNVEMDAAPGVDLTRVLAEMREQY [KRT15]	3.13 ± 0.42	3.27 ± 0.31
FRCLFEAEITQIQSHISDMSVILS [KRT71]	1.94 ± 0.14	2.34 ± 0.37
VAFRGLKGKKLYPVVSAVWGHCEV [SPSB4]	1.83 ± 0.46	2.71 ± 0.2

Sequence	protein stability index (treatment: DMSO)	protein stability index (treatment: MLN4924 1 uM, 8 h)
AGGTSDDPEPSGPHLPRVMLPGVL [SCNN1D]	4.14 ± 0.21	4.16 ± 0.13
AGFAQLTHLLMGLAGGKLILSLEG [HDAC6]	3.56 ± 0.82	3.05 ± 0.82
NLRYGFTKEVMNKYKVHGKEILRT [PPEF2]	2.63 ± 0.3	2.57 ± 0.31
DVPNRLVDNIDMIDGDGDDMERFM [BEX5]	4.98 ± 0.18	5.06 ± 0.21
LRYLSSIWNILDLVVILLSIVAVG [PKD2L1]	2.66 ± 0.65	3.3 ± 0.32
QQYQEQLDKSTKLVETAIQSLDEP [TRIM63]	5.1 ± 0.32	5.07 ± 0.086
HDIIKHPMDLSTVKRKMDGREYPD [BRD3]	5.02 ± 0.19	5.1 ± 0.11
RYLGRPPSPTSPPPPELMDVSLVG [DYRK1B]	3.98 ± 0.26	4.07 ± 0.29
ERLTKQEKRPLFLAPDFDRWLDES [HACD3]	3.87 ± 0.21	3.93 ± 0.38
HRDSSQAIPITELTKSQVQDKPYK [ZNF8]	4.96 ± 0.2	5.1 ± 0.3
EILPFLYLGSAYHASKCEFLANLH [DUSP5]	2.94 ± 0.5	2.92 ± 0.75
REKEDYLHLKRQPKRRWLFWNSPS [RHOBTB2]	2.42 ± 0.23	2.56 ± 0.18
LRNNFQKQLLSNKELILDKVYTHP [ZC2HC1C]	2.76 ± 0.23	3.08 ± 0.25
RAVIAWMEKIPFVLGGNLQGGELV [CPXM2]	–	2.36 ± 0.63
LFLGIHVFLVSCALPDSVLRRFVV [AUP1]	3.03 ± 0.52	2.97 ± 0.63
LHVNPKKQTIGNSCKACGYRGMLD [EIF5]	2.35 ± 0.29	2.44 ± 0.64
TSLKTKFPAEQYYRFHEHWRFVLQ [TSN]	2.34 ± 0.19	2.54 ± 0.16
GLAYDRKKVSKAAILARIKRTGDG [SCD]	3.27 ± 0.24	3.63 ± 0.35
QNCKKKLGKLPPQYALELLTVYAW [OAS1]	2.6 ± 0.58	2.25 ± 0.64
EVLSKALSQRTITVGVYEAAKLLN [GADD45A]	2.77 ± 0.45	2.56 ± 0.53
NGPLGPSEASIASNLQAMSTQMFQ [SMG5]	3.93 ± 0.18	3.95 ± 0.074
IYDNAVQGLRRHEILQWVLQTDSQ [LRRC59]	2.56 ± 0.2	2.64 ± 0.35
